B1: TRIM55 (parent)
chain: ICPICLEMFTKPVVILPCQHNLCR

Variants of: B1
Experiment: protein stability index of a GFP-peptide fusion (GPS, HEK-293T) (PSI 1-6); higher = more stable
Settings: c terminus: a fixed tail appended
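Further: lentivirally expressed fusions sorted by FACS into six bins by GFP to DsRed ratio, PSI derived from sequencing read proportions per bin multiplied by bin number.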

| Variant | protein stability index |
| --- | --- |
| ICPICLEMFTKPVVILPCQHNPCR [L22P] | 2.29 |
| ICPICLEMFTKPVVILPCQHNECR [L22E] | 2.45 |
| ICPICLEMFTKPVVILPCQHNGCR [L22G] | 2.44 |
| ICPICLEMFTKPVVILPCQHNMCR [L22M] | 3.14 |
| ICPICLEMFTKPVVILPCQHNDCR [L22D] | 2.64 |
| ICPICLEMFTKPVVILPCQHNNCR [L22N] | 2.54 |
| ICPICLEMFTKPVVILPCQHNACR [L22A] | 2.36 |
| ICPICLEMFTKPVVILPCQHNVCR [L22V] | 2.55 |
| ICPICLEMFTKPVVILPCQHNICR [L22I] | 2.31 |
| ICPICLEMFTKPVVILPCQHNQCR [L22Q] | 2.72 |
| ICPICLEMFTKPVVIVPCQHNLCR [L16V] | 2.68 |
| ICPICLEMFTKPVVIPPCQHNLCR [L16P] | 3.02 |
| ICPICLEMFTKPVVIGPCQHNLCR [L16G] | 3.03 |
| ICPICLEMFTKPVVIHPCQHNLCR [L16H] | 2.86 |
| ICPICLEMFTKPVVIKPCQHNLCR [L16K] | 2.58 |
| ICPICLEMFTKPVVIIPCQHNLCR [L16I] | 2.05 |
| ICPICLEMFTKPVVINPCQHNLCR [L16N] | 2.67 |
| ICPICLEMFTKPVVIWPCQHNLCR [L16W] | 2.38 |
| ICPICLEMFTKPVVIRPCQHNLCR [L16R] | 2.24 |
| ICPICLEMFTKPVVIMPCQHNLCR [L16M] | 2.38 |
| ICPICLEMFTKPVVIAPCQHNLCR [L16A] | 2.56 |
| ICPICLEMFTKPVVISPCQHNLCR [L16S] | 2.4 |
| ICPICLEMFTKPVVICPCQHNLCR [L16C] | 2.4 |
| ICPICLEMFTKPVVIDPCQHNLCR [L16D] | 2.61 |

| Variant | protein stability index |
| --- | --- |
| ICPICLEMFTKPVVIYPCQHNLCR [L16Y] | 2.39 |
| ICPICLEMFTKPVVIQPCQHNLCR [L16Q] | 2.62 |
| ICPICLEMFTKPVVITPCQHNLCR [L16T] | 2.77 |
| ICPICLEMFTKPVVIEPCQHNLCR [L16E] | 2.35 |
| ICPICLEMFTKPVVIFPCQHNLCR [L16F] | 2.12 |
| ICPICLEMFTKPVVILVCQHNLCR [P17V] | 2.33 |
| ICPICLEMFTKPVVILMCQHNLCR [P17M] | 1.7 |
| ICPICLEMFTKPVVILTCQHNLCR [P17T] | 2.32 |
| ICPICLEMFTKPVVILECQHNLCR [P17E] | 2.62 |
| ICPICLEMFTKPVVILGCQHNLCR [P17G] | 1.83 |
| ICPICLEMFTKPVVILNCQHNLCR [P17N] | 1.86 |
| ICPICLEMFTKPVVILYCQHNLCR [P17Y] | 1.99 |
| ICPICLEMFTKPVVILRCQHNLCR [P17R] | 2.17 |
| ICPICLEMFTKPVVILQCQHNLCR [P17Q] | 2 |
| ICPICLEMFTKPVVILHCQHNLCR [P17H] | 2.35 |
| ICPICLEMFTKPVVILACQHNLCR [P17A] | 1.97 |
| ICPICLEMFTKPVVILDCQHNLCR [P17D] | 2.27 |
| ICPICLEMFTKPVVILFCQHNLCR [P17F] | 2.53 |
| ICPICLEMFTKPVVILWCQHNLCR [P17W] | 2.31 |
| ICPICLEMFTKPVVILKCQHNLCR [P17K] | 1.93 |
| ICPICLEMFTKPVVILLCQHNLCR [P17L] | 2.44 |
| ICPICLEMFTKPVVILICQHNLCR [P17I] | 2.18 |
| ICPICLEMFTKPVVILSCQHNLCR [P17S] | 2.91 |
